Values quoted from earlier work as cited in publication PMC5257249.
pKd: −log10 of the molar value. Where two headings read alike, the source gives them in different places.

Assays:
[1] = target: MMOH (Methylococcus capsulatus) (UniProt P22869); assay: fluorescence anisotropy
[2] = target: MMOH (Methylococcus capsulatus) (UniProt P22869); assay: fluorescence anisotropy; remark: listed apart in the source

Chain of UniProt P22869 (P22869 whole entry, chain 1 of 3): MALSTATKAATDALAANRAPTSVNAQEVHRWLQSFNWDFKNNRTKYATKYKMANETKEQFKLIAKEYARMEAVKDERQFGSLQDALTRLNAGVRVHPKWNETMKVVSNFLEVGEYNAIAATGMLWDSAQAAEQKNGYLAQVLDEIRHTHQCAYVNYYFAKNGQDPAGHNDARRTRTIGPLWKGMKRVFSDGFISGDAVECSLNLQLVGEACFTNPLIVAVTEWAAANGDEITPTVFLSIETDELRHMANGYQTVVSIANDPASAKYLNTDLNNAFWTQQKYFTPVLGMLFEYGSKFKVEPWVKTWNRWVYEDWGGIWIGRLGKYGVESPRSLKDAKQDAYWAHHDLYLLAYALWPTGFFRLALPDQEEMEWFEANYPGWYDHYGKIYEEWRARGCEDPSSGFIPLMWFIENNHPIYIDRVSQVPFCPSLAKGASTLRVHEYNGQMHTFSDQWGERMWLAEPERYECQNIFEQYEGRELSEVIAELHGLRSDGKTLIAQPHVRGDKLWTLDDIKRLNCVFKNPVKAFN
Chain of UniProt P22869 (P18798 2-389, chain 2 of 3, further chain): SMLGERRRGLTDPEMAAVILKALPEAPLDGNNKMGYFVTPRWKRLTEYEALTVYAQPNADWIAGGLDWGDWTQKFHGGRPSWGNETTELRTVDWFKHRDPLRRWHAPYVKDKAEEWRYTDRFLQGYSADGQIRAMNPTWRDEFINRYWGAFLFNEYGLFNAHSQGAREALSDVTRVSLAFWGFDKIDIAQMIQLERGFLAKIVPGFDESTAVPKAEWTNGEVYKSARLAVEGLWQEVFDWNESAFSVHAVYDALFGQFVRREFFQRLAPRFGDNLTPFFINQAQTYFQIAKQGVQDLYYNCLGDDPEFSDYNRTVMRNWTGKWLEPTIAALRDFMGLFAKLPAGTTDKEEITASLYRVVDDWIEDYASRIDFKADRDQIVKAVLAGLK
Chain of UniProt P22869 (P11987 2-170, chain 3 of 3, further chain): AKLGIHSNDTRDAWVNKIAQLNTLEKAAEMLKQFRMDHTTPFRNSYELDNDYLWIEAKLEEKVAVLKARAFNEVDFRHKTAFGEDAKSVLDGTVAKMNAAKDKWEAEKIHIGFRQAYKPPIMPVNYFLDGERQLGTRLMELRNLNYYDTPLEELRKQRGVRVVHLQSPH

In the case of MMOB (from UniProt P18797), the pKd [1] is given as 6.26 and the pKd [2] is given as 6.77.
